Data on 5 molecules can be found in patent publication US20240383985A1 (QURE BIOTECHNOLOGY SHANGHAI, published 2024).

Numbering of substitutions follows the chain as printed. In names and notes the source's numbering stands.

This test concerns the target T1, CD33 naturally expressed on HL60 cells (human, UniProt P20138 18-364).
T1 construct: whole, on cells
Briefly: flow cytometry on HL60 cells, PE-anti human Fc detection. Here is the method: Experimental method: HL60 cells were cultured in a 5% CO₂ incubator at 37° C. After trypsin digestion, cells were collected and inoculated into 96-well plates at 100,000 cells per well. Then the plate was subjected to blocking on ice for 1 hour with 2% FBS/PBS. The cells were incubated with different concentrations of trifunctional proteins and control protein on ice for 1 hour, washed with PBS for 3 times, and incubated with PE-anti human Fc (1:200 dilution). The cells were washed with PBS for 3 times, and resuspended with 200 μl PBS. The mean fluorescence value was read by FACS and Graphpad prism software was used to analyze the results.
On the technique in general: Flow cytometry measures light scatter and fluorescence of single cells or particles in a stream.

T1 sequence (P20138 18-364): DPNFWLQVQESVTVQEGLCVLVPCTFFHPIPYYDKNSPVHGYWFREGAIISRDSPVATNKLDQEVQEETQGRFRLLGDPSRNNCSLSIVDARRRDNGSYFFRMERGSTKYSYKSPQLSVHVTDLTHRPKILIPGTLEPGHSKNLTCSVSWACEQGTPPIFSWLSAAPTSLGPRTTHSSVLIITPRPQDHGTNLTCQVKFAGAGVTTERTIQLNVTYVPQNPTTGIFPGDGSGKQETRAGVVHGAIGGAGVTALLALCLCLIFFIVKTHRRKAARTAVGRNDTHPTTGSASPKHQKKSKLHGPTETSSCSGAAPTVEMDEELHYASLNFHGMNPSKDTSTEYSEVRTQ

B1: CD33/CD16A/IL-15 trifunctional fusion protein QP42914285 (FC with L234A/L235A mutation for eliminating function) (bispecific antibody)
light: SYVLTQPSSVSVAPGQTATISCGGHNIGSKNVHWYQQRPGQSPVLVIYQDNKRPSGIPERFSGSNSGNTATLTISGTQAMDEADYYCQVWDNYSVLFGGGTKLTVLRTVAAPSVFIFPPSDEQLKSGTASVVCLLNNFYPREAKVQWKVDNALQSGNSQESVTEQDSKDSTYSLSSTLTLSKADYEKHKVYACEVTHQGLSSPVTKSFNRGEC
heavy: QVQLVQSGAEVKKPGESLKVSCKASGYTFTSYYMHWVRQAPGQGLEWMGIINPSGGSTSYAQKFQGRVTMTRDTSTSTVYMELSSLRSEDTAVYYCARGSAYYYDFADYWGQGTLVTVSSASTKGPSVFPLAPSSKSTSGGTAALGCLVKDYFPEPVTVSWNSGALTSGVHTFPAVLQSSGLYSLSSVVTVPSSSLGTQTYICNVNHKPSNTKVDKKVEPKSCDKTHTCPPCPAPEAAGGPSVFLFPPKPKDTLMISRTPEVTCVVVDVSHEDPEVKFNWYVDGVEVHNAKTKPREEQYNSTYRVVSVLTVLHQDWLNGKEYKCKVSNKALPAPIEKTISKAKGQPREPQVYTLPPSREEMTKNQVSLSCAVKGFYPSDIAVEWESNGQPENNYKTTPPVLDSDGSFFLVSKLTVDKSRWQQGNVFSCSVMHEALHNRYTQKSLSLSPGKGGSHHHHHH
chain 1: not shown
chain 2: not shown
notes: Four-chain heterodimer: anti-CD16A Fab arm and anti-CD33 Fv-IL-15/IL-15Ra arm
For the molecule B1, the binding result is reported as “binds”.

B2: CD33/CD16A/IL-15 trifunctional fusion protein QP743745 (FC wild-type) (bispecific antibody)
chain 1: not shown
chain 2: not shown
light: DIVMTQSPDSLTVSLGERTTINCKSSQSVLDSSTNKNSLAWYQQKPGQPPKLLLSWASTRESGIPDRFSGSGSGTDFTLTIDSPQPEDSATYYCQQSAHFPITFGQGTRLEIKRTVAAPSVFIFPPSDEQLKSGTASVVCLLNNFYPREAKVQWKVDNALQSGNSQESVTEQDSKDSTYSLSSTLTLSKADYEKHKVYACEVTHQGLSSPVTKSFNRGEC
heavy: QVQLVQSGAEVKKPGESVKVSCKASGYTFTNYGMNWVKQAPGQGLEWMGWINTYTGEPTYADKFQGRVTMTTDTSTSTAYMEIRNLGGDDTAVYYCARWSWSDGYYVYFDYWGQGTSVTVSSASTKGPSVFPLAPSSKSTSGGTAALGCLVKDYFPEPVTVSWNSGALTSGVHTFPAVLQSSGLYSLSSVVTVPSSSLGTQTYICNVNHKPSNTKVDKKVEPKSCDKTHTCPPCPAPELLGGPSVFLFPPKPKDTLMISRTPEVTCVVVDVSHEDPEVKFNWYVDGVEVHNAKTKPREEQYNSTYRVVSVLTVLHQDWLNGKEYKCKVSNKALPAPIEKTISKAKGQPREPQVYTLPPSREEMTKNQVSLSCAVKGFYPSDIAVEWESNGQPENNYKTTPPVLDSDGSFFLVSKLTVDKSRWQQGNVFSCSVMHEALHNRYTQKSLSLSPGK
Regarding B2, the binding result is on record as “binds”.

B3: CD33/CD16A bispecific antibody QP4115777778 (FC wild-type) (bispecific antibody, human IgG1, kappa)
chain: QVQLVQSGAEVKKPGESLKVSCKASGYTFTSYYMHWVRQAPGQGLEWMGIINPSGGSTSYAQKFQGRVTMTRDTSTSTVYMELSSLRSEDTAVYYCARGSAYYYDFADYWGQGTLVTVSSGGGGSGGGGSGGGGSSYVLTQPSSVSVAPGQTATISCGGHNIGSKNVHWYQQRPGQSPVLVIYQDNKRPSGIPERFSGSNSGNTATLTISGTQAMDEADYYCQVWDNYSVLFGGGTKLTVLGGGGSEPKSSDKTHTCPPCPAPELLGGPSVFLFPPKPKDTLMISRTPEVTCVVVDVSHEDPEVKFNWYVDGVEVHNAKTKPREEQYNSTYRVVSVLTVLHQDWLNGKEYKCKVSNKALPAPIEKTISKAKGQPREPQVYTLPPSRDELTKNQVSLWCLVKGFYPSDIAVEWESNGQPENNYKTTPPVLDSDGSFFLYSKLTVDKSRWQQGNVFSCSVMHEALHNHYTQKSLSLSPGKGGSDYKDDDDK
heavy: QVQLVQSGAEVKKPGESVKVSCKASGYTFTNYGMNWVKQAPGQGLEWMGWINTYTGEPTYADKFQGRVTMTTDTSTSTAYMEIRNLGGDDTAVYYCARWSWSDGYYVYFDYWGQGTSVTVSSASTKGPSVFPLAPSSKSTSGGTAALGCLVKDYFPEPVTVSWNSGALTSGVHTFPAVLQSSGLYSLSSVVTVPSSSLGTQTYICNVNHKPSNTKVDKKVEPKSCDKTHTCPPCPAPELLGGPSVFLFPPKPKDTLMISRTPEVTCVVVDVSHEDPEVKFNWYVDGVEVHNAKTKPREEQYNSTYRVVSVLTVLHQDWLNGKEYKCKVSNKALPAPIEKTISKAKGQPREPQVYTLPPSREEMTKNQVSLSCAVKGFYPSDIAVEWESNGQPENNYKTTPPVLDSDGSFFLVSKLTVDKSRWQQGNVFSCSVMHEALHNRYTQKSLSLSPGKGGSHHHHHH
light: B2 light
notes: also called QP411577778; CD16A/CD33 bispecific antibody
As for B3, the binding result is given as “binds”.

B4: CD33/CD16A/IL-15 trifunctional fusion protein QP43394340 (FC with L234A/L235A mutation for eliminating function) (bispecific antibody)
chain 1: not shown
chain 2: not shown
light: B2 light
heavy: B2 heavy with L239A, L240A
notes: Four-chain heterodimer, hIgG1 Fc LALA; plasmid names mention Flag and His tags
In the case of B4, the binding result was “binds”.

B5: CD33 antibody IgG1 wt subtype QP41154116 (antibody, V domains shown)
VH: QVQLVQSGAEVKKPGESVKVSCKASGYTFTNYGMNWVKQAPGQGLEWMGWINTYTGEPTYADKFQGRVTMTTDTSTSTAYMEIRNLGGDDTAVYYCARWSWSDGYYVYFDYWGQGTSVTVSS
VL: DIVMTQSPDSLTVSLGERTTINCKSSQSVLDSSTNKNSLAWYQQKPGQPPKLLLSWASTRESGIPDRFSGSGSGTDFTLTIDSPQPEDSATYYCQQSAHFPITFGQGTRLEIKR
notes: IgG1 wild-type control antibody; also called antiCD33 antibody
As to B5, the binding result was “binds”.
